The values below come from patent US20220073604A1 (ARGENX BVBA, published 2022).

A value given as a limit tells only on which side of the number the result lay.

Assay [1] addresses T1, eukaryotically produced human IL-6 (human, UniProt P05231 30-212).
T1 construct: also called eukIL-6; Euk IL-6
The assay can be described thus: SPR; periplasmic fraction; against parental 29B11. (SPR reads the build-up and loss of mass on a sensor chip optically.)

Assay [2] addresses T2, bacterially produced human IL-6 (human, UniProt P05231 30-212).
T2 construct: also called bactIL-6; prokaryotic IL-6
Kind of assay: SPR; periplasmic fraction; against parental 29B11.

Assay [3] addresses T3, cynomolgus monkey IL-6 (cynomolgus monkey, UniProt P79341 28-212, limits assumed).
T3 construct: also called HIS-cyIL-6
The assay can be described thus: SPR; periplasmic fraction; against parental 29B11.

Assay [4] concerns the target T1, eukaryotically produced human IL-6. The assay can be described thus: SPR; periplasmic fraction.
In assay [5] the target is T2, bacterially produced human IL-6. Kind of assay: SPR; periplasmic fraction.
In assay [6] the target is T3, cynomolgus monkey IL-6. Kind of assay: SPR; periplasmic fraction.
Assay [7] deals with human IL-6 (human, UniProt P05231 30-212). Kind of assay: cell-based or functional assay.
Assay [8] has as its target T4, human IL-6 (as added in the B9 and 7TD1 bioassays) (human, UniProt P05231 30-212). Kind of assay: cell-based or functional assay.
Assay [9] has as its target T4, human IL-6 (as added in the B9 and 7TD1 …). Kind of assay: cell-based or functional assay. The source holds these as a separate data set.
The target is the same in assay [10]. The assay can be described thus: cell-based or functional assay. This is another data set of the same source.

B1: Fab 55C1 (Fab, V domains shown)
VH: EVQLVESGGGLVQPGGSLRLSCAASGFTFSSYAMSWVRQAPGKGLEWVSRISSGGISTYYADSVKGRFTISRDNAKNTLYLQMNSLKPEDTAVYYCVRYAWGVQWAFDFWGQGTQVTVSS
VL: LNFMLTQPPSVSGSPGKTVTISCAGTSSDVGYGNYVSWYQQLPGTAPKLLIYNVNKRASGITDRFSGSKSGNTASLTISGLQSEDEADYYCASYRTGDNAAFGGGTKLTVLG
notes: VL-shuffled Fab of 29B11, periplasmic fraction; also called 55C1a
For B1, in assay [1], the “fold improvement KD” value is 3.03 fold, the fold improvement ka is 2.35 fold and the fold improvement kd stood at 1.29 fold. Besides, in assay [2], the “fold improvement KD” value stood at 3.97 fold, the fold improvement ka amounted to 2.24 fold and the fold improvement kd was 1.78 fold. In [3], the “fold improvement KD” value turned out to be 8.25 fold, the fold improvement ka turned out to be 4.2 fold and the fold improvement kd amounted to 1.96 fold. Further, in assay [4], the Ka was determined as 5.55e+09 M⁻¹, the Kd (usually the constant that tells how readily two partners part at equilibrium) amounted to 180 pM, the off-rate (koff) (usually a measure of how fast the partners let go of each other) amounted to 7.93e-05 s⁻¹ and the kon (usually the rate constant with which the complex forms) turned out to be 440000 M⁻¹ s⁻¹. In addition, in assay [5], the Ka is 7.6e+09 M⁻¹, the Kd is 132 pM, the koff came out at 7.38e-05 s⁻¹ and the kon worked out at 561000 M⁻¹ s⁻¹. In assay [6], this molecule showed a Ka of 1.25e+09 M⁻¹, a Kd of 801 pM, a koff of 0.000381 s⁻¹ and a kon of 475000 M⁻¹ s⁻¹.

B2: Fab 47C2 (Fab, V domains shown)
VH: EVQLVESGGGLVQPGGSLRLSCAASGFTFSSYAMSWVRQAPGKGLEWVSRISSGGISTYYADSVKGRFTISRDNAKNTLYLQMNSLKPEDTAVYYCVRYAWGVQWAFDFWGQGTQVTVSS
VL: LSYDLTQPPSVSGSPGKTVTISCAGTSSDVGYGNYVSWYQQLPGMAPKILIYDVNKRASGIADRFSGSKSGNTASLTISGLQSEDEADYYCASYRRGETIVFGGGTHLTVLG
notes: VL-shuffled Fab of 29B11, periplasmic fraction; also called 47C2 (R4)
In the case of B2, in assay [1], the “fold improvement KD” value amounted to 1.94 fold, the fold improvement ka turned out to be 4.54 fold and the fold improvement kd came out at 0.43 fold. In assay [2], the “fold improvement KD” value was 1.86 fold, the fold improvement ka came out at 4.46 fold and the fold improvement kd amounted to 0.42 fold. In addition, in [3], the “fold improvement KD” value came to 4.29 fold, the fold improvement ka worked out at 7.53 fold and the fold improvement kd amounted to 0.57 fold. In assay [4], this molecule displayed a Ka of 3.54e+09 M⁻¹, a Kd of 282 pM, a koff of 0.00024 s⁻¹ and a kon of 849000 M⁻¹ s⁻¹. In assay [5], this molecule gave a Ka of 3.56e+09 M⁻¹, a Kd of 281 pM, a koff of 0.000315 s⁻¹ and a kon of 1.12e+06 M⁻¹ s⁻¹. In assay [6], this molecule yielded a Ka of 6.48e+08 M⁻¹, a Kd of 1540 pM, a koff of 0.00131 s⁻¹ and a kon of 851000 M⁻¹ s⁻¹.

B3: Fab 55H1 (Fab, V domains shown)
VH: EVQLVESGGGLVQPGGSLRLSCAASGFTFSSYAMSWVRQAPGKGLEWVSRISSGGISTYYADSVKGRFTISRDNAKNTLYLQMNSLKPEDTAVYYCVRYAWGVQWAFDFWGQGTQVTVSS
VL: AQSVVTQPPSVSGSPGKTVTISCAGTSSDVGYGNYVSWYQQLPGMAPKLLIYDVSKRASGIADRFSGSKSGNTASLTISGLQSEDEADYVCASYRRGGTAVFGGGTHLTVLG
notes: VL-shuffled Fab of 29B11, periplasmic fraction; also called 55H1c
With B3, in [1], the “fold improvement KD” value is 5.59 fold, the fold improvement ka amounted to 6.04 fold and the fold improvement kd was 0.92 fold. Moreover, in assay [2], the “fold improvement KD” value was 5.26 fold, the fold improvement ka stood at 5.1 fold and the fold improvement kd worked out at 1.03 fold. Also, in [3], the “fold improvement KD” value turned out to be 12.5 fold, the fold improvement ka turned out to be 10.3 fold and the fold improvement kd is 1.21 fold. In assay [4], the Ka stood at 1.02e+10 M⁻¹, binding was characterised by a dissociation constant (Kd) of 97.7 pM, the koff amounted to 0.000111 s⁻¹ and the kon is 1.13e+06 M⁻¹ s⁻¹. In [5], this molecule returned a Ka of 1e+10 M⁻¹, a Kd of 99.7 pM, a dissociation rate constant (koff) of 0.000127 s⁻¹ and a kon of 1.28e+06 M⁻¹ s⁻¹. In assay [6], the Ka worked out at 1.89e+09 M⁻¹, the Kd was 529 pM, the koff is 0.000615 s⁻¹ and the on-rate constant (kon) is 1.16e+06 M⁻¹ s⁻¹.

B4: Fab 55E2 (Fab, V domains shown)
VH: EVQLVESGGGLVQPGGSLRLSCAASGFTFSSYAMSWVRQAPGKGLEWVSRISSGGISTYYADSVKGRFTISRDNAKNTLYLQMNSLKPEDTAVYYCVRYAWGVQWAFDFWGQGTQVTVSS
VL: AQSVLTQPPSVSGSPGKTVTISCAGTSSDVGYGNYVSWYQQLPGMAPKLLIYDVNKRASGIADRFSGSKFANTASLTISGLQSEDEADYYCASYKRGDNAVFGGGTKLTVLG
notes: VL-shuffled Fab of 29B11, periplasmic fraction; also called 55E2b
Consider B4, for which, in assay [1], the “fold improvement KD” value is 3.46 fold, the fold improvement ka amounted to 2.21 fold and the fold improvement kd was found to be 1.56 fold. Besides, in assay [2], the “fold improvement KD” value came out at 3.82 fold, the fold improvement ka is 1.95 fold and the fold improvement kd came out at 1.95 fold. In addition, in assay [3], the “fold improvement KD” value is 9.22 fold, the fold improvement ka was 4.14 fold and the fold improvement kd turned out to be 2.22 fold. In [4], the Ka came out at 6.34e+09 M⁻¹, binding was put at a Kd of 158 pM, the koff came to 6.53e-05 s⁻¹ and the kon was determined as 414000 M⁻¹ s⁻¹. Also, in [5], the Ka was 7.28e+09 M⁻¹, the Kd came out at 137 pM, the koff stood at 6.72e-05 s⁻¹ and the kon was found to be 489000 M⁻¹ s⁻¹. In assay [6], the Ka is 1.39e+09 M⁻¹, binding was characterised by a dissociation constant (Kd) of 717 pM, the koff is 0.000336 s⁻¹ and the kon came to 468000 M⁻¹ s⁻¹.

B5: 129D3 antibody (antibody, V domains shown)
VH: EVQLQESGPGLVKPSQTLSLTCTVSGGSITSRYYAWSWIRQPPGKGLEWIGVIDYDGDTYYSPSLKSRVSISWDTSKNQFSLKLSSVTPADTAVYYCARDPDVVTGFHYDYWGQGTMVTVSS
VL: QSALTQPPSVSGTPGQSVTISCAGANNDIGTYAYVSWYQQLPGTAPKLMIYKVTTRASGIPDRFSGSKSGNTASLTISGLQAEDEADYYCASYRNFNNAVFGTGTKLTVL
With B5, in assay [7], the “IC50, growth of IL-6-dependent 7TD1 cells with 75 pg/ml human IL-6” value is under 1 pM and the “IC50, proliferation of IL-6-dependent B9 cells with 10 pg/ml human IL-6” value was under 0.1 pM.

B6: 68F2 (parental antibody), full-length IgG1 (antibody, V domains shown)
VH: EVQLQESGPGLVKPSQTLSLTCTVSGGSITTRYYAWSWIRQPPGKGLEWMGVIDYDGDTYYSPSLKSRTSISWDTSKNQFSLQLSSVTPEDTAVYYCARDPDVVTGFHYDYWGQGTQVTVSS
VL: QSALTQPPLVSGTPGQTVTISCAGANNDIGTYAYVSWYQQLPGTAPKLLIYKVTTRASGIPSRFSGSKSGNTASLTISGLQSEDEADYYCASYRNFNNAVFGRGTHLTVLG
With B6, in [8], the “IC50, 7TD1 cells (batch A8.10)” value came to 0.67 pM and the “Potency relative to 68F2, 7TD1 cells (batch A8.10)” value was found to be 1. For the same molecule, in [9], the “IC50, 7TD1 proliferation assay, exp 7.07 (batch 24.06)” value was found to be 1.36 pM; the “IC50, 7TD1 proliferation assay, exp 7.07 (batch #12.9)” value is 1.46 pM; the “IC50, 7TD1 proliferation assay, exp 22.06 (batch #12.9)” value was 0.803 pM; the “IC50, 7TD1 proliferation assay, exp 29.06 (December batch)” value is 0.645 pM. In assay [9], the “IC50, 7TD1 proliferation assay, exp 29.06 (Large batch)” value is 1.31 pM; the “IC50, 7TD1 proliferation assay, exp 29.06 (batch 24.06)” value was determined as 0.56 pM; the “IC50, 7TD1 proliferation assay, exp 29.06 (batch #12.9)” value was 0.521 pM; the “Rel. Potency, 7TD1, exp 29.06 (batch 24.06)” value came to 1. In addition, in assay [10], the “IC 50, B9 cell proliferation (batch 12.9)” value was determined as 0.98 pM; the “IC 50, B9 cell proliferation (batch A8.10)” value is 0.62 pM; the “average IC50 of the two 68F2 batches, B9 cells” value amounted to 0.8 pM.

B7: 132E7 (germlined variant of 68F2) (antibody, V domains shown)
VH: EVQLQESGPGLVKPSQTLSLTCTVSGGSITSRYYAWSWIRQPPGKGLEWIGVIDYDGDTYYSPSLKSRVTISWDTSKNQFSLKLSSVTPADTAVYYCARDPDVVTGFHYDYWGQGTTVTVSS
VL: QSVLTQPPRVSGAPGQTVTISCAGANNDIGTYAYVSWYQQLPGTAPKLLIYKVTTRASGVPDRFSGSKSGNSASLTITGLQAEDEADYYCASYRNFNNAVFGGGTKLTVL
Turning to B7, in [8], the “IC50, 7TD1 cells” value was found to be 0.37 pM and the “Potency relative to 68F2, 7TD1 cells” value turned out to be 1.85. Further, in assay [10], the “IC 50, B9 cell proliferation” value was found to be 0.38 pM and the “Rel. potency, B9 cells” value is 2.1.

B8: 133E5 (germlined variant of 68F2) (antibody, V domains shown)
VH: QVQLQESGPGLVKPSQTLSLTCTVSGGSITSRYYAWSWIRQPPGKGLEWIGVIDYDGDTYYSPSLKSRVTISWDTSKNQFSLKLSSVTPEDTAVYYCARDPDVVTGFHYDYWGQGTQVTVSS
VL: QSALTQPPSVSGSPGQTVTISCAGANNDIGTYAYVSWYQQLPGTAPKLMIYKVTTRASGIPDRFSGSKSGNTASLTISGLQAEDEADYYCASYRNFNNAVFGRGTKLTVL
For B8, in assay [8], the “IC50, 7TD1 cells” value came to 0.1 pM and the “Potency relative to 68F2, 7TD1 cells” value stood at 6.69. Besides, in assay [10], the “IC 50, B9 cell proliferation” value was determined as 0.19 pM and the “Rel. potency, B9 cells” value worked out at 4.3.

B9: 133H2 (germlined variant of 68F2) (antibody, V domains shown)
VH: EVQLQESGPGLVKPSQTLSLTCTVSGGSITTRYYAWSWIRQPPGKGLEWIGVIDYDGDTYYSPSLKSRTTISWDTSKNQFSLKLSSVTPADTAVYYCARDPDVVTGFHYDYWGQGTTVTVSS
VL: QSALTQPPLVSGSPGQTVTISCAGANNDIGTYAYVSWYQQPPGTAPKLMIYKVTTRASGIPDRFSGSKSGNTASLTISGLQAEDEADYYCASYRNFNNAVFGSGTKLTVL
B9: in assay [8], the “IC50, 7TD1 cells (batch A1.8)” value is 0.35 pM; the “IC50, 7TD1 cells (batch A9.11)” value was found to be 0.47 pM; the “Potency relative to 68F2, 7TD1 cells (batch A1.8)” value was 1.94; the “Potency relative to 68F2, 7TD1 cells (batch A9.11)” value amounted to 1.44. In assay [10], the “IC 50, B9 cell proliferation” value was found to be 0.37 pM and the “Rel. potency, B9 cells” value was found to be 2.2.
